B1: alpha subunit of methyl-coenzyme M reductase (McrA) from wild-type M. acetivorans, fully modified (natural protein, Methanosarcina acetivorans, UniProt Q8THH1 1-570, looked up)
chain: MAADIFAKFKKSMEVKFTQEYGSNKQAGGDITGKTEKFLRLGPEQDARKQEMIKAGKEIAEKRGIAFYNPMMHMGAPLGQRAITPYTISGTDIVAEPDDLHYVNNAAMQQMWDDIRRTCIVGLDMAHETLEKRLGKEVTPETINHYLETLNHAMPGAAVVQEMMVETHPALVDDCYVKIFTGDDELADEIDKQYVINVNKMFSEEQAAQIKASIGKTTWQAIHIPTIVSRTTDGAQTSRWAAMQIGMSFISAYAMCAGEAAVADLSFAAKHAALVSMGEMLPARRARGPNEPGGLSFGHLSDIVQTSRVSKDPAKIALEVVGAGCMLYDQIWLGSYMSGGVGFTQYATAAYTDDILDNNTYYDVDYINDKYNGAANLGTDNKVKATLDVVKDIATESTLYGIETYEKFPTALEDHFGGSQRATVLAAASGVACALATGNANAGLSGWYLSMYVHKEAWGRLGFFGFDLQDQCGATNVLSYQGDEGLPDELRGPNYPNYAMNVGHQGGYAGIAQAAHSGRGDAFTVNPLLKVCFADELMPFNFAEPRREFGRGAIREFMPAGERSLVIPAK
modifications: N1-methylhistidine at His271; 5-(S)-methylarginine at Arg285; thioglycine at Gly465; didehydroaspartate at Asp470; S-methylcysteine at Cys472
notes: McrA, alpha subunit of methyl-coenzyme M reductase, Methanosarcina acetivorans; chromosomally encoded; Two copies stand in the α2β2γ2 complex; also called α subunit of MCR; α-subunit; source: endogenous, M. acetivorans strain with TAP-tagged mcrG
B2: McrA from the ΔycaO-tfuA mutant of M. acetivorans (lacks thioglycine) (natural protein, Methanosarcina acetivorans, UniProt Q8THH1 1-570, looked up)
chain: MAADIFAKFKKSMEVKFTQEYGSNKQAGGDITGKTEKFLRLGPEQDARKQEMIKAGKEIAEKRGIAFYNPMMHMGAPLGQRAITPYTISGTDIVAEPDDLHYVNNAAMQQMWDDIRRTCIVGLDMAHETLEKRLGKEVTPETINHYLETLNHAMPGAAVVQEMMVETHPALVDDCYVKIFTGDDELADEIDKQYVINVNKMFSEEQAAQIKASIGKTTWQAIHIPTIVSRTTDGAQTSRWAAMQIGMSFISAYAMCAGEAAVADLSFAAKHAALVSMGEMLPARRARGPNEPGGLSFGHLSDIVQTSRVSKDPAKIALEVVGAGCMLYDQIWLGSYMSGGVGFTQYATAAYTDDILDNNTYYDVDYINDKYNGAANLGTDNKVKATLDVVKDIATESTLYGIETYEKFPTALEDHFGGSQRATVLAAASGVACALATGNANAGLSGWYLSMYVHKEAWGRLGFFGFDLQDQCGATNVLSYQGDEGLPDELRGPNYPNYAMNVGHQGGYAGIAQAAHSGRGDAFTVNPLLKVCFADELMPFNFAEPRREFGRGAIREFMPAGERSLVIPAK
modifications: N1-methylhistidine at His271; 5-(S)-methylarginine at Arg285; didehydroaspartate at Asp470; S-methylcysteine at Cys472; Gly465 unmodified
notes: McrA, alpha subunit of methyl-coenzyme M reductase, Methanosarcina acetivorans; chromosomally encoded; differs only in the posttranslational modifications; also called McrA with unmodified Gly465; source: endogenous, M. acetivorans ΔycaO-tfuA strain with TAP-tagged mcrG
B3: McrA from the ΔmamAΔmcmA double mutant of M. acetivorans (lacks 5-(S)-methylarginine and S-methylcysteine) (natural protein, Methanosarcina acetivorans, UniProt Q8THH1 1-570, looked up)
chain: MAADIFAKFKKSMEVKFTQEYGSNKQAGGDITGKTEKFLRLGPEQDARKQEMIKAGKEIAEKRGIAFYNPMMHMGAPLGQRAITPYTISGTDIVAEPDDLHYVNNAAMQQMWDDIRRTCIVGLDMAHETLEKRLGKEVTPETINHYLETLNHAMPGAAVVQEMMVETHPALVDDCYVKIFTGDDELADEIDKQYVINVNKMFSEEQAAQIKASIGKTTWQAIHIPTIVSRTTDGAQTSRWAAMQIGMSFISAYAMCAGEAAVADLSFAAKHAALVSMGEMLPARRARGPNEPGGLSFGHLSDIVQTSRVSKDPAKIALEVVGAGCMLYDQIWLGSYMSGGVGFTQYATAAYTDDILDNNTYYDVDYINDKYNGAANLGTDNKVKATLDVVKDIATESTLYGIETYEKFPTALEDHFGGSQRATVLAAASGVACALATGNANAGLSGWYLSMYVHKEAWGRLGFFGFDLQDQCGATNVLSYQGDEGLPDELRGPNYPNYAMNVGHQGGYAGIAQAAHSGRGDAFTVNPLLKVCFADELMPFNFAEPRREFGRGAIREFMPAGERSLVIPAK
modifications: N1-methylhistidine at His271; thioglycine at Gly465; didehydroaspartate at Asp470; Arg285 and Cys472 unmodified
notes: McrA, alpha subunit of methyl-coenzyme M reductase, Methanosarcina acetivorans; chromosomally encoded; differs only in the posttranslational modifications; source: endogenous, M. acetivorans ΔmamAΔmcmA strain with TAP-tagged mcrG
B4: McrA from the ΔmcmAΔycaO-tfuA double mutant of M. acetivorans (lacks S-methylcysteine and thioglycine) (natural protein, Methanosarcina acetivorans, UniProt Q8THH1 1-570, looked up)
chain: MAADIFAKFKKSMEVKFTQEYGSNKQAGGDITGKTEKFLRLGPEQDARKQEMIKAGKEIAEKRGIAFYNPMMHMGAPLGQRAITPYTISGTDIVAEPDDLHYVNNAAMQQMWDDIRRTCIVGLDMAHETLEKRLGKEVTPETINHYLETLNHAMPGAAVVQEMMVETHPALVDDCYVKIFTGDDELADEIDKQYVINVNKMFSEEQAAQIKASIGKTTWQAIHIPTIVSRTTDGAQTSRWAAMQIGMSFISAYAMCAGEAAVADLSFAAKHAALVSMGEMLPARRARGPNEPGGLSFGHLSDIVQTSRVSKDPAKIALEVVGAGCMLYDQIWLGSYMSGGVGFTQYATAAYTDDILDNNTYYDVDYINDKYNGAANLGTDNKVKATLDVVKDIATESTLYGIETYEKFPTALEDHFGGSQRATVLAAASGVACALATGNANAGLSGWYLSMYVHKEAWGRLGFFGFDLQDQCGATNVLSYQGDEGLPDELRGPNYPNYAMNVGHQGGYAGIAQAAHSGRGDAFTVNPLLKVCFADELMPFNFAEPRREFGRGAIREFMPAGERSLVIPAK
modifications: N1-methylhistidine at His271; 5-(S)-methylarginine at Arg285; didehydroaspartate at Asp470; Gly465 and Cys472 unmodified
notes: McrA, alpha subunit of methyl-coenzyme M reductase, Methanosarcina acetivorans; chromosomally encoded; differs only in the posttranslational modifications; also called McrA from ΔycaO-tfuA/ΔmcmA; source: endogenous, M. acetivorans ΔmcmAΔycaO-tfuA strain with TAP-tagged mcrG
B5: McrA from the ΔmamA mutant of M. acetivorans (lacks 5-(S)-methylarginine) (natural protein, Methanosarcina acetivorans, UniProt Q8THH1 1-570, looked up)
chain: MAADIFAKFKKSMEVKFTQEYGSNKQAGGDITGKTEKFLRLGPEQDARKQEMIKAGKEIAEKRGIAFYNPMMHMGAPLGQRAITPYTISGTDIVAEPDDLHYVNNAAMQQMWDDIRRTCIVGLDMAHETLEKRLGKEVTPETINHYLETLNHAMPGAAVVQEMMVETHPALVDDCYVKIFTGDDELADEIDKQYVINVNKMFSEEQAAQIKASIGKTTWQAIHIPTIVSRTTDGAQTSRWAAMQIGMSFISAYAMCAGEAAVADLSFAAKHAALVSMGEMLPARRARGPNEPGGLSFGHLSDIVQTSRVSKDPAKIALEVVGAGCMLYDQIWLGSYMSGGVGFTQYATAAYTDDILDNNTYYDVDYINDKYNGAANLGTDNKVKATLDVVKDIATESTLYGIETYEKFPTALEDHFGGSQRATVLAAASGVACALATGNANAGLSGWYLSMYVHKEAWGRLGFFGFDLQDQCGATNVLSYQGDEGLPDELRGPNYPNYAMNVGHQGGYAGIAQAAHSGRGDAFTVNPLLKVCFADELMPFNFAEPRREFGRGAIREFMPAGERSLVIPAK
modifications: N1-methylhistidine at His271; thioglycine at Gly465; didehydroaspartate at Asp470; S-methylcysteine at Cys472; Arg285 unmodified
notes: McrA, alpha subunit of methyl-coenzyme M reductase, Methanosarcina acetivorans; chromosomally encoded; differs only in the posttranslational modifications; also called McrA with unmodified Arg285; source: endogenous, M. acetivorans ΔmamA strain with TAP-tagged mcrG
B6: McrA from the ΔmcmA mutant of M. acetivorans (lacks S-methylcysteine) (natural protein, Methanosarcina acetivorans, UniProt Q8THH1 1-570, looked up)
chain: MAADIFAKFKKSMEVKFTQEYGSNKQAGGDITGKTEKFLRLGPEQDARKQEMIKAGKEIAEKRGIAFYNPMMHMGAPLGQRAITPYTISGTDIVAEPDDLHYVNNAAMQQMWDDIRRTCIVGLDMAHETLEKRLGKEVTPETINHYLETLNHAMPGAAVVQEMMVETHPALVDDCYVKIFTGDDELADEIDKQYVINVNKMFSEEQAAQIKASIGKTTWQAIHIPTIVSRTTDGAQTSRWAAMQIGMSFISAYAMCAGEAAVADLSFAAKHAALVSMGEMLPARRARGPNEPGGLSFGHLSDIVQTSRVSKDPAKIALEVVGAGCMLYDQIWLGSYMSGGVGFTQYATAAYTDDILDNNTYYDVDYINDKYNGAANLGTDNKVKATLDVVKDIATESTLYGIETYEKFPTALEDHFGGSQRATVLAAASGVACALATGNANAGLSGWYLSMYVHKEAWGRLGFFGFDLQDQCGATNVLSYQGDEGLPDELRGPNYPNYAMNVGHQGGYAGIAQAAHSGRGDAFTVNPLLKVCFADELMPFNFAEPRREFGRGAIREFMPAGERSLVIPAK
modifications: N1-methylhistidine at His271; 5-(S)-methylarginine at Arg285; thioglycine at Gly465; didehydroaspartate at Asp470; Cys472 unmodified
notes: McrA, alpha subunit of methyl-coenzyme M reductase, Methanosarcina acetivorans; chromosomally encoded; differs only in the posttranslational modifications; also called McrA with unmodified Cys472; source: endogenous, M. acetivorans ΔmcmA strain with TAP-tagged mcrG
B7: McrA from the ΔmamAΔycaO-tfuA double mutant of M. acetivorans (lacks 5-(S)-methylarginine and thioglycine) (natural protein, Methanosarcina acetivorans, UniProt Q8THH1 1-570, looked up)
chain: MAADIFAKFKKSMEVKFTQEYGSNKQAGGDITGKTEKFLRLGPEQDARKQEMIKAGKEIAEKRGIAFYNPMMHMGAPLGQRAITPYTISGTDIVAEPDDLHYVNNAAMQQMWDDIRRTCIVGLDMAHETLEKRLGKEVTPETINHYLETLNHAMPGAAVVQEMMVETHPALVDDCYVKIFTGDDELADEIDKQYVINVNKMFSEEQAAQIKASIGKTTWQAIHIPTIVSRTTDGAQTSRWAAMQIGMSFISAYAMCAGEAAVADLSFAAKHAALVSMGEMLPARRARGPNEPGGLSFGHLSDIVQTSRVSKDPAKIALEVVGAGCMLYDQIWLGSYMSGGVGFTQYATAAYTDDILDNNTYYDVDYINDKYNGAANLGTDNKVKATLDVVKDIATESTLYGIETYEKFPTALEDHFGGSQRATVLAAASGVACALATGNANAGLSGWYLSMYVHKEAWGRLGFFGFDLQDQCGATNVLSYQGDEGLPDELRGPNYPNYAMNVGHQGGYAGIAQAAHSGRGDAFTVNPLLKVCFADELMPFNFAEPRREFGRGAIREFMPAGERSLVIPAK
modifications: N1-methylhistidine at His271; didehydroaspartate at Asp470; S-methylcysteine at Cys472; Arg285 and Gly465 unmodified
notes: McrA, alpha subunit of methyl-coenzyme M reductase, Methanosarcina acetivorans; chromosomally encoded; differs only in the posttranslational modifications; source: endogenous, M. acetivorans ΔmamAΔycaO-tfuA strain with TAP-tagged mcrG
B8: McrA from the ΔmamAΔmcmAΔycaO-tfuA triple mutant of M. acetivorans (lacks 5-(S)-methylarginine, S-methylcysteine and thioglycine) (natural protein, Methanosarcina acetivorans, UniProt Q8THH1 1-570, looked up)
chain: MAADIFAKFKKSMEVKFTQEYGSNKQAGGDITGKTEKFLRLGPEQDARKQEMIKAGKEIAEKRGIAFYNPMMHMGAPLGQRAITPYTISGTDIVAEPDDLHYVNNAAMQQMWDDIRRTCIVGLDMAHETLEKRLGKEVTPETINHYLETLNHAMPGAAVVQEMMVETHPALVDDCYVKIFTGDDELADEIDKQYVINVNKMFSEEQAAQIKASIGKTTWQAIHIPTIVSRTTDGAQTSRWAAMQIGMSFISAYAMCAGEAAVADLSFAAKHAALVSMGEMLPARRARGPNEPGGLSFGHLSDIVQTSRVSKDPAKIALEVVGAGCMLYDQIWLGSYMSGGVGFTQYATAAYTDDILDNNTYYDVDYINDKYNGAANLGTDNKVKATLDVVKDIATESTLYGIETYEKFPTALEDHFGGSQRATVLAAASGVACALATGNANAGLSGWYLSMYVHKEAWGRLGFFGFDLQDQCGATNVLSYQGDEGLPDELRGPNYPNYAMNVGHQGGYAGIAQAAHSGRGDAFTVNPLLKVCFADELMPFNFAEPRREFGRGAIREFMPAGERSLVIPAK
modifications: N1-methylhistidine at His271; didehydroaspartate at Asp470; Arg285, Gly465 and Cys472 unmodified
notes: McrA, alpha subunit of methyl-coenzyme M reductase, Methanosarcina acetivorans; chromosomally encoded; differs only in the posttranslational modifications; also called McrA from the triple-deletion mutant; source: endogenous, M. acetivorans ΔmamAΔmcmAΔycaO-tfuA strain with TAP-tagged mcrG

Target: the molecule itself
Experiment: crystal structure; wild-type TAP-tagged MCR complex affinity-purified aerobically from M. acetivorans, inactive Ni(II) form; 25 mg/ml, sitting drops, 0.2 M ammonium acetate, 0.1 M sodium acetate pH 4, 15% PEG 4000, room temperature; 1.65 Å

Binding result, binds:
B1

Target: the molecule itself
Experiment: crystal structure; TAP-tagged MCR variants affinity-purified aerobically from the modification mutants, inactive Ni(II) form; 3-30 mg/ml, hanging drops, same reservoir solution as the wild type; 1.9-2.3 Å

Binding result, binds:
B2
B3
B4
B5
B6
B7
B8
